Measurements as given in the RNAGym collection of RNA variant scans (doi:10.7554/elife.80360).

B1: CPEB3 Ribozyme (parent)
chain: GGGGGCCACAGCAGAAGCGUUCACGUCGCGGCCCCUGUCAGAUUCUGGUGAAUCUGCGAAUUCUGCUGU

Variants of: B1
Assay: self-cleavage, relative activity (ratio to wild type); higher = more cleavage; co-transcriptional

Row | Variant | self-cleavage
1 | A8G C9G | 0.915
2 | A8G C9U | 0.954
3 | A8C G14A | 0.669
4 | A8C G14C | 0.528
5 | A8C G41A | 0.89
6 | A8C G41U | 0.78
7 | A8G A16U | 0.457
8 | A8C U69G | 1.04
9 | A8C U69A | 1.01
10 | A8G C27U | 0.0734
11 | A8G C27A | 0.0861
12 | A8C G48U | 1.02
13 | A8C G48C | 1.02
14 | A8C U36A | 0.205
15 | A8C U36G | 0.192
16 | A8C U36C | 0.819
17 | A8C C34U | 0.972
18 | A8C C34G | 0.859
19 | A8C C34A | 0.834
20 | A8C U20A | 0.114
21 | A8C U20C | 0.166
22 | A8C C33A | 0.897
23 | A8C C33G | 0.527
24 | A8G | 0.929

Row | Variant | self-cleavage
25 | A8C G30U | 0.492
26 | A8C G30C | 0.758
27 | A8C G30A | 0.951
28 | A8G C39G | 0.537
29 | A8G C39A | 0.242
30 | A8G C33U | 0.833
31 | A8G C33A | 0.73
32 | A8G A15C | 0.0691
33 | A8G A15U | 0.144
34 | A8C G56C | 0.83
35 | A8C G56A | 0.999
36 | A8C C63U | 0.972
37 | A8C C63A | 0.76
38 | A8C A23C | 0.907
39 | A8C A23G | 0.997
40 | A8C A23U | 1.01
41 | A8C C57A | 0.352
42 | A8C C57G | 0.446
43 | A8C C57U | 0.357
44 | A8G C12U | 0.444
45 | A8G C12G | 0.133
46 | A8G C12A | 0.175
47 | A8G A52G | 0.902
48 | A8G A52C | 0.768

Row | Variant | self-cleavage
49 | A8G A52U | 0.803
50 | A8C U21C | 0.854
51 | A8C C12U | 0.981
52 | A8C C12G | 0.798
53 | A8C C27A | 0.555
54 | A8C C27G | 0.112
55 | A8C C29A | 0.532
56 | A8C C45A | 1.01
57 | A8C C45U | 1.04
58 | A8C G37A | 0.207
59 | A8C G37U | 0.257
60 | A8C G28C | 0.122
61 | A8C G28U | 0.154
62 | A8G C18G | 0.0214
63 | A8G C18U | 0.207
64 | A8G C18A | 0.12
65 | A8C G31U | 0.664
66 | A8C G31C | 0.267
67 | A8G A23G | 0.623
68 | A8G A23U | 0.858
69 | A8C A59G | 1
70 | A8C A59U | 0.821
71 | A8C U64C | 0.86
72 | A8C U64G | 0.892

Row | Variant | self-cleavage
73 | A8C U55G | 0.851
74 | A8C U55A | 0.969
75 | A8C C32U | 0.954
76 | A8C C32G | 0.227
77 | A8C C35G | 0.421
78 | A8C C35U | 0.976
79 | A8C C66G | 0.871
80 | A8C C66U | 1.02
81 | A8C U38C | 0.9
82 | A8C A16U | 0.843
83 | A8C A16G | 0.962
84 | A8G A51C | 0.706
85 | A8C C54U | 1
86 | A8C C54G | 0.876
87 | A8G C29U | 0.761
88 | A8G C29G | 0.496
89 | A8G C29A | 0.647
90 | A8C A40G | 0.958
91 | A8C A40U | 0.868
92 | A8C C9U | 1.01
93 | A8C C9A | 1.01
94 | A8C C9G | 0.922
95 | A8C C22G | 0.19
96 | A8C C22U | 0.22

Row | Variant | self-cleavage
97 | A8C C22A | 0.163
98 | A8G A40C | 0.103
99 | A8G A40G | 0.723
100 | A8G A40U | 0.333
101 | A8G A10U | 0.69
102 | A8C U46C | 0.979
103 | A8C U46A | 0.981
104 | A8C U53C | 0.902
105 | A8C U53A | 0.919
106 | A8C U53G | 0.89
107 | A8C G68C | 1
108 | A8C G68U | 1.02
109 | A8C A51U | 1.01
110 | A8G C32A | 0.701
111 | A8C U62G | 0.9
112 | A8C U62C | 0.841
113 | A8C U62A | 0.898
114 | A8C G25C | 0.113
115 | A8C G25A | 0.148
116 | A8C C39G | 0.927
117 | A8C C39U | 0.947
118 | A8C C39A | 0.848
119 | A8G C35A | 0.217
120 | A8G C35G | 0.341

Row | Variant | self-cleavage
121 | A8C G47A | 1.02
122 | A8G C24U | 0.174
123 | A8G C24A | 0.446
124 | A8G C24G | 0.15
125 | A8C G58A | 0.944
126 | A8G A60U | 0.25
127 | A8G A60G | 0.393
128 | A8G C34G | 0.665
129 | A8G A42G | 0.536
130 | A8G A42U | 0.622
131 | A8G A42C | 0.59
132 | A8C U67A | 1.04
133 | A8C G19A | 0.189
134 | A8G C22U | 0.074
135 | A8G C22A | 0.136
136 | A8G C22G | 0.0752
137 | A8C A52C | 0.941
138 | A8C A52G | 0.974
139 | A8C G11C | 0.779
140 | A8C G11U | 0.768
141 | A8C G11A | 0.923
142 | A8G A13U | 0.0712
143 | A8G C45A | 0.8
144 | A8C A60C | 0.382

Row | Variant | self-cleavage
145 | A8C A60U | 0.413
146 | A8C A60G | 0.953
147 | A8C C24U | 0.753
148 | A8C C24G | 0.488
149 | A8C U61G | 0.937
150 | A8C U61C | 0.776
151 | A8C C18G | 0.186
152 | A8C C18U | 0.88
153 | A8C G17A | 0.269
154 | A8C G17U | 0.444
155 | A8C G17C | 0.165
156 | A8G A59G | 0.897
157 | A8G A59C | 0.162
158 | A8G A59U | 0.401
159 | A8C U49A | 1.06
160 | A8C U49C | 1
161 | A8C U49G | 1.01
162 | A8C U44A | 0.944
163 | A8C U44C | 0.896
164 | A8C G65U | 0.676
165 | A8C G65A | 0.928
166 | A8C A42U | 0.918
167 | A8C A42G | 0.939
